Test results: patent US11789019B2 (priority 2014, dated 2023)
“Also recorded” adds a separate entry of the source. Like-named read-outs stand apart in the source and are kept apart here.

Assays:
1807 cells [1] = format: cell-based, mouse; conditions: calnexin peptide #1 13 amino acid sequence of the named species
[2] = system: calnexin peptide #1-specific CD4+ T cells; format: in vivo, mouse
[3] = system: B. dermatitidis strain 26199; format: in vivo, Blastomyces dermatitidis
[4] = target: recombinant Calnexin (Paracoccidioides brasiliensis Calnexin with C-terminal 6xHis tag, from E. coli) (Paracoccidioides brasiliensis)
1807 cells [5] = test: In vivo activation and proliferation of adoptively transferred 1807 cells; conditions: emulsified in complete Freund's adjuvant; CD44, CFSE
human CD4+ T cells = test: In vitro stimulation and identification of activated human T cells (PBMC, CD154 enrichment, CD137); format: cell-based
[6] = 10 μg/ml, CD137 on CD154 enriched CD4+ cells, positive >3-fold over medium alone

Molecule: LVLKNEAAHHAIS (listed as Pneumocystis carinii) [Pneumocystis carinii_Rat Form 1]
- 1807 reactive (1807 cells [1]; listed as SEQ ID NO: 6): not reactive

Molecule: LVVKNPAAHHAIS (Blastomyces dermatitidis of strains 26199, 18808, Er-3, 14081; Histoplasma capsulatum of strains G186AR, Nam1, H88, H143; Aspergillus sp.1 of strain group.1; Arthroderma; listed as Ajellomyces capsulatus, listed as Ajellomyces dermatitidis, listed as Arthroderma benhamiae) [Peptide #1, synthetic 13 aa peptide, residues 103-115 of B. dermatitidis calnexin]
- calnexin-specific T cells vs. number of cells in control mice ([2]; delivery via the i.v. route): more than 20 fold
- pool of calnexin-specific T cells in the draining lymph nodes and spleen ([2]; delivery via the i.v. route): > 1000 cells
- tetramer positive CD4+ T cells per animal ([2]; naïve C57BL/6 mice): 30
- protection against infection compared to preceding approaches ([3]; i.v. delivery of calnexin peptide): vaccine efficacy was unchanged

Molecule: 1807 T-cell receptor (Blastomyces-specific TCR transgenic 1807 CD4+ T cells)
- activation (CD44) and proliferation (CFSE) of adoptively transferred 1807 cells in vivo [4]: 85%

Molecule: LVMKSRASHYAIS (Candida albicans) [Candida albicans_5314]
- 1807 reactive (1807 cells [1]; listed as SEQ ID NO: 9): not reactive

Molecule: LVLKSRAKHHAIS (listed as Homo sapiens) [SEQ ID NO: 10, reference compound]
- 1807 reactive (1807 cells [1]): not reactive

B1: rCalnexin: recombinant Paracoccidioides brasiliensis Calnexin with C-terminal 6×His tag expressed in E. coli, 63 kD (protein)
chain: MRLNASLASLILSSIALIGNVHAEDEVKEDATSTSSVIEKPTFTPTTLKAPFLEQFTDGWETRWTPSHAKKEDSKSEEDWAYVGTWAVEEPHVFNGMVGDKGLVVKNPAAHHAISAKFPKKIDNKGKTLVVQYEVKLQNSLNCGGAYMKLLQDNKKLHAEEFSNTSPYVIMFGPDKCGVTNKVHFIFKHKNPKTGEYEEKHMKLPPAVRVSKLSTLYTLIVNPDQSFQIRIDGAAVKNGTLLEDFSPAVNPEKEIDDPEDKKPEDWVDEAHIPDPEATKPEDWDEDAPYEIVDTDATQPEDWLVDEPTSIPDPEAQKPEDWDDEEDGDWIPPTIPNPKCSEVSGCGMWEPPMKKNPEYKGKWTAPMIDNPAYKGPWAPRKIANPNYFEDKTPSNFEPMGAIGFEIWTMQNDILFDNIYIGHSVEDAEKLKAETWDLKHPVEVAEEEAARPKDEEKKEGTLSFKEAPVKYIRGKIELFISLALENPVEAVKAVPEVAGGLGALLVTLVLIIVGAVGLGSPSPAPAAKKQAEKGKEKTAEAVSTAADNVKGEAKKRSGKAGE
- tetramer-positive cells displaying CCR6 or CXCR3 ([2]; draining lymph nodes after vaccination): 15-20%
- proportion of CD44+ CD4+ T cells recruited to lung that are tetramer positive ([2]; mouse, in vivo): more than doubles
- tetramer positive lung cells that produced IL-17 ([2]; mouse, in vivo): about 50
- tetramer-positive cells recruited to the lung that were IL-17 producers ([2]; mouse, in vivo): ~30%
- survival ([3]; in vivo): prolonged survival
- transferred 1807 cells activated and proliferating (1807 cells [5]): > 85%
- immune subjects that responded (human CD4+ T cells; [6]): five of six
- non-immune subjects that responded (human CD4+ T cells; [6]): One of four
- concentration dependence of CD4+ T cell response (human CD4+ T cells; immune subjects): dose-dependent; also recorded: concentration-dependent manner
- frequency of activated (CD154) cells compared with Hsp60 (human CD4+ T cells; immune subjects): similar
- response in the presence of polymyxin B (LPS contribution) (human CD4+ T cells; immune subjects): not due to contaminating LPS; also recorded: retained in the presence of polymyxin B
